These results are taken from article PMC9669019, “Molecular basis for integrin adhesion receptor binding to p21-activated kinase 4 (PAK4)” (Communications Biology, 2022).

For test [1], the system named is integrin β5 tail. Kind of test: Pull-down of wild-type and mutated full-length GFP-PAK4 by wild-type integrin β5 tail. The test is classed as binding. Here is the method:
(§1) Pull down assays were performed as previously described[45],[60]. Briefly, constructs encoding an N-terminal His-tag followed by a helical region, a 4-glycine spacer, and an integrin cytoplasmic tail sequence were produced in BL21 (DE3) bacteria. Following bacterial cell lysis, recombinant protein was bound to Ni-NTA beads, eluted with imidazole, dialyzed and further purified by reverse-phase high-performance liquid chromatography (HPLC). Purified protein was lyophilized for storage and was used to coat fresh Ni-NTA beads to generate an affinity matrix for pull-down assays.
(§2) For pulldowns from cell lysates, human PAK4 constructs were generated in pEGFP (Takara Bio Inc.) by PCR amplification from a pLX304 PAK4 isoform 1 (Uniprot O96013-1) construct kindly provided by Michael Calderwood (Dana-Farber Cancer Institute). Mutations and deletions were introduced by QuikChange mutagenesis or PCR amplification. Chinese hamster ovary (CHO) cells were seeded on 10 cm tissue culture dishes and transiently transfected with GFP-tagged constructs using polyethylenimine (Polysciences). After 24 h, cells were harvested and lysed in buffer X (1 mM NaVO4, 50 mM NaF, 40 mM sodium pyrophosphate, 50 mM NaCl, 150 mM sucrose, 10 mM Pipes, pH 6.8) containing 0.5% Triton X-100, 0.2% deoxycholic acid, and complete EDTA-free protease inhibitor mixture (Roche, Indianapolis, IN, USA) for 15 min at 4 °C. After clarification by centrifugation, lysate was diluted in buffer X-T (buffer X with 0.05% Triton X-100) and incubated with His-tagged integrin tails coupled to Ni-NTA beads for 4 h with rocking at 4 °C. For experiments using purified PAK4cat, protein was incubated with His-tagged integrin tails coupled to Ni-NTA beads in buffer X-T for 2 h with rocking at 4 °C. Beads were then washed three times with buffer X-T, and bound proteins were fractionated by reducing SDS-PAGE and analyzed by immunoblotting with anti-GFP antibodies (600-101-215, Rockland). Immunoblots were imaged on an Odyssey IR imaging system (Li-Cor; Lincoln, NE, USA) and analyzed using Image Studio Lite (Li-Cor; Lincoln, NE, USA). For the quantification of binding from immunoblots, the fluorescence intensity of the band corresponding to bound material was quantified as a fraction of the fluorescence of the input material band for each condition. Loading of integrin tails was assessed by Coomassie Blue staining. Data were analyzed using GraphPad Prism.

In test [2] the test system is integrin β5 tail. Kind of test: Pull-down of wild-type and mutated GFP-PAK4 catalytic domain by wild-type integrin β5 tail. The test is classed as binding. The conditions noted are these: for Effect of PAK4 mutation on pull-down by integrin β5: catalytic domain (Fig. 4g) and full-length PAK4 (Fig. 4h). Here is the method: as §1, §2
[3] abbreviates: Figure 4H source data, full-length PAK4, experiment row r4.
The mark [4] stands for this setting: Figure 4G source data, PAK4 catalytic domain, replicate 1.

B1: D444A: GFP-tagged PAK4 D444A mutant; catalytic domain (Fig 4G) or full-length (Fig 4H) (protein, UniProt O96013 1-591, looked up, variant D444A)
Serine/threonine-protein …: MFGKRKKRVEISAPSNFEHRVHTGFDQHEQKFTGLPRQWQSLIEESARRPKPLVDPACITSIQPGAPKTIVRGSKGAKDGALTLLLDEFENMSVTRSNSLRRDSPPPPARARQENGMPEEPATTARGGPGKAGSRGRFAGHSEAGGGSGDRRRAGPEKRPKSSREGSGGPQESSRDKRPLSGPDVGTPQPAGLASGAKLAAGRPFNTYPRADTDHPSRGAQGEPHDVAPNGPSAGGLAIPQSSSSSSRPPTRARGAPSPGVLGPHASEPQLAPPACTPAAPAVPGPPGPRSPQREPQRVSHEQFRAALQLVVDPGDPRSYLDNFIKIGEGSTGIVCIATVRSSGKLVAVKKMDLRKQQRRELLFNEVVIMRDYQHENVVEMYNSYLVGDELWVVMEFLEGGALTDIVTHTRMNEEQIAAVCLAVLQALSVLHAQGVIHRDIKSASILLTHDGRVKLSDFGFCAQVSKEVPRRKSLVGTPYWMAPELISRLPYGPEVDIWSLGIMVIEMVDGEPPYFNEPPLKAMKMIRDNLPPRLKNLHKVSPSLKGFLDRLLVRDPAQRATAAELLKHPFLAKAGPPASIVPLMRQNRTR
modifications: GFP tag; catalytic domain or full-length
Consider B1, for which the “Binding to wild-type integrin β5 tail, normalized to FL-WT” value (shortened to “Binding … normalized to FL-WT”) in the test with integrin β5 tail [1] (setting [3]) amounted to 0.235; in the test with integrin β5 tail [1] (Figure 4H, experiment row r5), 0.008; in the test on integrin β5 tail [1] (Figure 4H, experiment row r14), 0.233; in the test with integrin β5 tail [1] (Figure 4H, experiment row r15), 0.015. Besides, the “Binding to wild-type integrin β5 tail, normalized to cat-WT” value (shortened to “Binding … normalized to cat-WT”) in the test on integrin β5 tail [2] (setting [4]) is 0.04069; in the test on integrin β5 tail [2] (Figure 4G, replicate 2), 0.001166; in the test with integrin β5 tail [2] (Figure 4G, replicate 3) it was 0.2433; with integrin β5 tail [2] (Figure 4G, replicate 4) it was 0.09577; with integrin β5 tail [2] (Figure 4G, replicate 5) it was 3.582e-6; with integrin β5 tail [2] (Figure 4G, replicate 6), 0.09749. For the same molecule, the “Binding … normalized to cat-WT” value with integrin β5 tail [2] (Figure 4G, replicate 7) came out at 0.0832. In the test on integrin β5 tail [2], the “Effect of PAK4 mutation on pull-down by integrin β5” value (“Effect of PAK4 mutation” below) is reported as “strong inhibition”.

B2: M482K: GFP-tagged PAK4 M482K mutant; catalytic domain (Fig 4G) or full-length (Fig 4H) (protein, UniProt O96013 1-591, looked up, variant M482K)
Serine/threonine-protein …: MFGKRKKRVEISAPSNFEHRVHTGFDQHEQKFTGLPRQWQSLIEESARRPKPLVDPACITSIQPGAPKTIVRGSKGAKDGALTLLLDEFENMSVTRSNSLRRDSPPPPARARQENGMPEEPATTARGGPGKAGSRGRFAGHSEAGGGSGDRRRAGPEKRPKSSREGSGGPQESSRDKRPLSGPDVGTPQPAGLASGAKLAAGRPFNTYPRADTDHPSRGAQGEPHDVAPNGPSAGGLAIPQSSSSSSRPPTRARGAPSPGVLGPHASEPQLAPPACTPAAPAVPGPPGPRSPQREPQRVSHEQFRAALQLVVDPGDPRSYLDNFIKIGEGSTGIVCIATVRSSGKLVAVKKMDLRKQQRRELLFNEVVIMRDYQHENVVEMYNSYLVGDELWVVMEFLEGGALTDIVTHTRMNEEQIAAVCLAVLQALSVLHAQGVIHRDIKSDSILLTHDGRVKLSDFGFCAQVSKEVPRRKSLVGTPYWKAPELISRLPYGPEVDIWSLGIMVIEMVDGEPPYFNEPPLKAMKMIRDNLPPRLKNLHKVSPSLKGFLDRLLVRDPAQRATAAELLKHPFLAKAGPPASIVPLMRQNRTR
modifications: GFP tag
For B2, the “Binding … normalized to FL-WT” value was determined as 0.259 in the test with integrin β5 tail [1] (setting [3]); 1.377 in the test with integrin β5 tail [1] (Figure 4H, experiment row r5); 0.432 with integrin β5 tail [1] (Figure 4H, experiment row r6); 0.512 in the test with integrin β5 tail [1] (Figure 4H, experiment row r7); 0.381 in the test on integrin β5 tail [1] (Figure 4H, experiment row r8); 1.044 in the test on integrin β5 tail [1] (Figure 4H, experiment row r10). Further, the “Binding … normalized to FL-WT” value in the test on integrin β5 tail [1] (Figure 4H, experiment row r11) is listed as 0.278; in the test with integrin β5 tail [1] (Figure 4H, experiment row r17), 0.149; in the test on integrin β5 tail [1] (Figure 4H, experiment row r19), 0.8. The “Binding … normalized to cat-WT” value was determined as 0.517 with integrin β5 tail [2] (setting [4]); 0.2755 in the test with integrin β5 tail [2] (Figure 4G, replicate 2); 0.5038 in the test on integrin β5 tail [2] (Figure 4G, replicate 3); 0.2427 with integrin β5 tail [2] (Figure 4G, replicate 4); 0.2915 with integrin β5 tail [2] (Figure 4G, replicate 5); 0.007133 in the test with integrin β5 tail [2] (Figure 4G, replicate 6). Further, the “Effect of PAK4 mutation” value with integrin β5 tail [2] is given as “moderate effect”.

B3: E512R: GFP-tagged PAK4 E512R mutant; catalytic domain (Fig 4G) or full-length (Fig 4H) (protein, UniProt O96013 1-591, looked up, variant E512R)
Serine/threonine-protein …: MFGKRKKRVEISAPSNFEHRVHTGFDQHEQKFTGLPRQWQSLIEESARRPKPLVDPACITSIQPGAPKTIVRGSKGAKDGALTLLLDEFENMSVTRSNSLRRDSPPPPARARQENGMPEEPATTARGGPGKAGSRGRFAGHSEAGGGSGDRRRAGPEKRPKSSREGSGGPQESSRDKRPLSGPDVGTPQPAGLASGAKLAAGRPFNTYPRADTDHPSRGAQGEPHDVAPNGPSAGGLAIPQSSSSSSRPPTRARGAPSPGVLGPHASEPQLAPPACTPAAPAVPGPPGPRSPQREPQRVSHEQFRAALQLVVDPGDPRSYLDNFIKIGEGSTGIVCIATVRSSGKLVAVKKMDLRKQQRRELLFNEVVIMRDYQHENVVEMYNSYLVGDELWVVMEFLEGGALTDIVTHTRMNEEQIAAVCLAVLQALSVLHAQGVIHRDIKSDSILLTHDGRVKLSDFGFCAQVSKEVPRRKSLVGTPYWMAPELISRLPYGPEVDIWSLGIMVIEMVDGRPPYFNEPPLKAMKMIRDNLPPRLKNLHKVSPSLKGFLDRLLVRDPAQRATAAELLKHPFLAKAGPPASIVPLMRQNRTR
modifications: GFP tag
Take B3: the “Binding … normalized to FL-WT” value in the test on integrin β5 tail [1] (Figure 4H, experiment row r5) stood at 0.472; in the test with integrin β5 tail [1] (Figure 4H, experiment row r6), 0.89; in the test on integrin β5 tail [1] (Figure 4H, experiment row r7) it was 0.486; in the test with integrin β5 tail [1] (Figure 4H, experiment row r8), 0.106; in the test with integrin β5 tail [1] (Figure 4H, experiment row r9) it was 0.64. The “Binding … normalized to cat-WT” value was 0.1343 in the test on integrin β5 tail [2] (setting [4]); 0.09959 with integrin β5 tail [2] (Figure 4G, replicate 2); 0.2543 with integrin β5 tail [2] (Figure 4G, replicate 3); 0.09217 in the test with integrin β5 tail [2] (Figure 4G, replicate 4); 0.08446 with integrin β5 tail [2] (Figure 4G, replicate 5); 0.3379 in the test with integrin β5 tail [2] (Figure 4G, replicate 6). In addition, the “Effect of PAK4 mutation” value in the test with integrin β5 tail [2] was “strong inhibition”.
